Source: patent US20100074906A1

Biological target: Varicella Zoster Virus (VZV) antigens (lysate of VZV-infected MRC-5 cells, VZV-infected MRC-5 cells, cell-free VZV; ELLEN strain) (Varicella Zoster Virus (ELLEN strain, ATCC VR-586))
Experiment: cell-based or functional assay

B1: FLAGhis-tagged DDF-VZV1 human Fab expressed using pDLac-VZV1-FLAGhis (Fab)
heavy: LESGPGLVKPSETLSLTCSVSGGSITTKDFSWAWIRQPPGKGLEWIGSIYYSGTTHYSPSLKSRVIMSVDTSDNKFSLSLTSVTAADTAVYYCARQLGRSPGIYSFWRDHRTSAFDFWGQGTLATVSAASTKGPSVFPLAPSSKSTSGGTAALGCLVKDYFPEPVTVSWNSGALTSGVHTFPAVLQSSGLYSLSSVVTVPSSSLGTQTYICNVNHKPSNTKVDKKVEPKSCDKTSDYKDDDDKHHHHHH
light: ELTQSPSSLSASVGDRVTITCRATQSISSYLSWYQQKPGQAPKLLIYGASNLQSGVPSRFSGSGSGTDFTLTINSLQPEDFATYYCQQTLSTPFTFGPGTRVDFKRTVAAPSVFIFPPSDEQLKSGTASVVCLLNNFYPREAKVQWKVDNALQSGNSQESVTEQDSKDSTYSLSSTLTLSKADYEKHKVYACEVTHQGLSSPVTKSFNRGEC
  VZV-neutralizing activity, IC50 (plaque reduction): 2 µg/mL

B2: FLAGhis-tagged DDF-VZV2 human Fab expressed using pDLac-VZV2-FLAGhis (Fab)
heavy: LESGGGLVQPGGSLRLSCEASGFTFSSYTMNWVRQAPGKGLEWVSWISSSGSDIYYAESVKGRFTISRDNAKNSLYLQMNSLRDEDTALYYCARDGIDSSSSWGGEPYFYTMDFWGQGTTVIVSSASTKGPSVFPLAPSSKSTSGGTAALGCLVKDYFPEPVTVSWNSGALTSGVHTFPAVLQSSGLYSLSSVVTVPSSSLGTQTYICNVNHKPSNTKVDKKVEPKSCDKTSDYKDDDDKHHHHHH
light: not shown
  VZV-neutralizing activity, IC50 (plaque reduction): 2 µg/mL
